Results: article PMC9902482 (2023)
“And” between values parts separate entries of the source, which are not always exact repeats. Identical values can stand only once.

B1: full-length extracellular region (ECR) of ADGRL3 (domain or fragment)
chain 1: FSRAPIPMAVVRRELSCESYPIELRCPGTDVIMIESANYGRTDDKICDSDPAQMENIRCYLPDAYKIMSQRCNNRTQCAVVAGPDVFPDPCPGTYKYLEVQYECVPYKVEQKVFLCPGLLKGVYQSEHLFESDHQSGAWCKDPLQASDKIYYMPWTPYRTDTLTEYSSKDDFIAGRPTTTYKLPHRVDGTGFVVYDGALFFNKERTRNIVKFDLRTRIKSGEAIIANANYHDTSPYRWGGKSDIDLAVDENGLWVIYATEQNNGKIVISQLNPYTLRIEGTWDTAYDKRSASNAFMICGILYVVKSVYEDDDNEATGNKIDYIYNTDQSKDSLVDVPFPNSYQYIAAVDYNPRDNLLYVWNNYHVVKYSLDFGPLDSRSGQAHHGQVSYISPPIHLDSELERPSVKDISTTGPLGMGSTTTSTTLRTTTLSPGRSTTPSVSGRRNRSTSTPSPAVEVLDDMTTHLPSASSQIPALEESCEAVEAREIMWFKTRQGQIAKQPCPAGTIGVSTYLCLAPDGIWDPQGPDLSNCSSPWVNHITQKLKSGETAANIARELAEQTRNHLNAGDITYSVRAMDQLVGLLDVQLRNLTPGGKDSAARSLNKAMVETVNNLLQPQALNAWRDLTTSDQLRAATMLLHTVEESAFVLADNLLKTDIVRENTDNIKLEVARLSTEGNLEDLKFPENMGHGSTIQLSANTLKQNGRNGEIRVAFVLYNNLGPYLSTENASMKLGTEALSTNHSVIVNSPVITAAINKEFSNKVYLADPVVFTVKHIKQSEENFNPNCSFWSYSKRTMTGYWSTQGCRLLTTNKTHTTCSCNHL
chain 2: TNFAVLMAHVEVKHSDAVHDL
modifications: biotin on the Avi-tag (BirA) where used biotinylated
B2: ADGRL3 Lec/Olf fragment (domain or fragment)
chain: PIPMAVVRRELSCESYPIELRCPGTDVIMIESANYGRTDDKICDSDPAQMENIRCYLPDAYKIMSQRCNNRTQCAVVAGPDVFPDPCPGTYKYLEVQYECVPYKVEQKVFLCPGLLKGVYQSEHLFESDHQSGAWCKDPLQASDKIYYMPWTPYRTDTLTEYSSKDDFIAGRPTTTYKLPHRVDGTGFVVYDGALFFNKERTRNIVKFDLRTRIKSGEAIIANANYHDTSPYRWGGKSDIDLAVDENGLWVIYATEQNNGKIVISQLNPYTLRIEGTWDTAYDKRSASNAFMICGILYVVKSVYEDDDNEATGNKIDYIYNTDQSKDSLVDVPFPNSYQYIAAVDYNPRDNLLYVWNNYHVVKYSLDFGPLD
B3: synthetic antibody fragment (sAB) LK30 (Fab, V domains shown)
VH: EVQLVESGGGLVQPGGSLRLSCAASGFNIYYSSIHWVRQAPGKGLEWVAYISPYSGSTSYADSVKGRFTISADTSKNTAYLQMNSLRAEDTAVYYCARYKYGQGHMGAFDYWGQGTLVTVSS
VL: DIQMTQSPSSLSASVGDRVTITCRASQSVSSAVAWYQQKPGKAPKLLIYSASSLYSGVPSRFSGSRSGTDFTLTISSLQPEDFATYYCQQSNTELVTFGQGTKVEIK

Tests used:
[1] = molecular target: LK25; assay: ELISA
[2] = molecular target: LK12; assay: SPR
[3] = molecular target: LK31; assay: SPR
[4] = molecular target: LK29; assay: SPR
[5] = molecular target: B2; assay: SPR
[6] = molecular target: B1; assay: SPR
[7] = molecular target: B2; assay: SPR
[8] = molecular target: B1; assay: SPR
[9] = molecular target: T1, Lec domain of ADGRL3 (human, UniProt Q9HAR2 24-126, biotin on the Avi-tag (BirA) in the flow cytometry experiments); assay: SPR
T1 chain: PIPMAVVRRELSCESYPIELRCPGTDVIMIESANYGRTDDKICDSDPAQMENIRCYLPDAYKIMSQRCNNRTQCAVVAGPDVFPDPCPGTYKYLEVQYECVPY

Binder	Kd [1]	Kd [2]	koff [2]	Kd [3]	koff [3]	Kd [4]	koff [4]	Kd [5]	Kd [6]	koff [7]	koff [8]	koff [9]
B1	56.8 nM	8.3 nM	0.0032 s⁻¹	3.8 nM	0.002 s⁻¹	4.1 nM	0.0015 s⁻¹					
B2		12.5 nM	0.0099 s⁻¹	3.6 nM	0.0029 s⁻¹	2.5 nM	0.001 s⁻¹					
B3								5.4 nM and 3.7 nM	4.2 nM	0.0066 s⁻¹ and 0.0049 s⁻¹	0.0058 s⁻¹	0.0113 s⁻¹
